Source: PMC10663500, “High-throughput analysis system of interaction kinetics for data-driven antibody design” (Scientific Reports, 2023)
Where a chain is given by its changes, count along the chain named.

B1: toripalimab Fab L.T36Y (Fab, V domains shown)
VH: QGQLVQSGAEVKKPGASVKVSCKASGYTFTDYEMHWVRQAPIHGLEWIGVIESETGGTAYNQKFKGRVTITADKSTSTAYMELSSLRSEDTAVYYCAREGITTVATTYYWYFDVWGQGTTVTVSS
VL: DVVMTQSPLSLPVTLGQPASISCRSSQSIVHSNGNYYLEWYLQKPGQSPQLLIYKVSNRFSGVPDRFSGSGSGTDFTLKISRVEAEDVGVYYCFQGSHVPLTFGQGTKLEIK
notes: as the heavy chain of Sm3; light chain of Sm3 with this change; numbers count from the chain's first residue; source: Brevibacillus, culture supernatant (ammonium sulfate precipitate); not shown: 6xHis, C-terminal, kept; 6xHN, C-terminal, kept
B2: toripalimab Fab L.L38A (Fab, V domains shown)
VH: B1 VH
VL: B1 VL with Y36T, L38A
notes: as for B1
B3: toripalimab Fab L.K55A (Fab, V domains shown)
VH: B1 VH
VL: B1 VL with Y36T, K55A
notes: as for B1
B4: toripalimab Fab H.V50A (Fab, V domains shown)
VH: B1 VH with V50A
VL: B1 VL with Y36T
notes: heavy chain of Sm3 with this change; numbers count from the chain's first residue; as the light chain of Sm3; source: Brevibacillus, culture supernatant (ammonium sulfate precipitate); not shown: 6xHis, C-terminal, kept; 6xHN, C-terminal, kept
B5: toripalimab Fab L.K55Y (Fab, V domains shown)
VH: B1 VH
VL: B1 VL with Y36T, K55Y
notes: as for B1
B6: toripalimab Fab L.V56A (Fab, V domains shown)
VH: B1 VH
VL: B1 VL with Y36T, V56A
notes: as for B1
B7: toripalimab Fab L.V56Y (Fab, V domains shown)
VH: B1 VH
VL: B1 VL with Y36T, V56Y
notes: as for B1
B8: toripalimab Fab L.S57A (Fab, V domains shown)
VH: B1 VH
VL: B1 VL with Y36T, S57A
notes: as for B1
B9: toripalimab Fab L.S57Y (Fab, V domains shown)
VH: B1 VH
VL: B1 VL with Y36T, S57Y
notes: as for B1
B10: toripalimab Fab L.N58A (Fab, V domains shown)
VH: B1 VH
VL: B1 VL with Y36T, N58A
notes: as for B1
B11: toripalimab Fab L.N58Y (Fab, V domains shown)
VH: B1 VH
VL: B1 VL with Y36T, N58Y
notes: as for B1
B12: toripalimab Fab L.R59A (Fab, V domains shown)
VH: B1 VH
VL: B1 VL with Y36T, R59A
notes: as for B1
B13: toripalimab Fab L.R59Y (Fab, V domains shown)
VH: B1 VH
VL: B1 VL with Y36T, R59Y
notes: as for B1
B14: toripalimab Fab L.F60A (Fab, V domains shown)
VH: B1 VH
VL: B1 VL with Y36T, F60A
notes: as for B1
B15: toripalimab Fab L.F60Y (Fab, V domains shown)
VH: B1 VH
VL: B1 VL with Y36T, F60Y
notes: as for B1
B16: toripalimab Fab L.S61A (Fab, V domains shown)
VH: B1 VH
VL: B1 VL with Y36T, S61A
notes: as for B1
B17: toripalimab Fab L.S61Y (Fab, V domains shown)
VH: B1 VH
VL: B1 VL with Y36T, S61Y
notes: as for B1
B18: toripalimab Fab L.F94A (Fab, V domains shown)
VH: B1 VH
VL: B1 VL with Y36T, F94A
notes: as for B1
B19: toripalimab Fab L.F94Y (Fab, V domains shown)
VH: B1 VH
VL: B1 VL with Y36T, F94Y
notes: as for B1
B20: toripalimab Fab H.I51A (Fab, V domains shown)
VH: B1 VH with I51A
VL: B1 VL with Y36T
notes: as for B4
B21: toripalimab Fab L.Q95A (Fab, V domains shown)
VH: B1 VH
VL: B1 VL with Y36T, Q95A
notes: as for B1
B22: toripalimab Fab L.S97A (Fab, V domains shown)
VH: B1 VH
VL: B1 VL with Y36T, S97A
notes: as for B1
B23: toripalimab Fab L.H98A (Fab, V domains shown)
VH: B1 VH
VL: B1 VL with Y36T, H98A
notes: as for B1
B24: toripalimab Fab L.H98Y (Fab, V domains shown)
VH: B1 VH
VL: B1 VL with Y36T, H98Y
notes: as for B1
B25: toripalimab Fab L.V99A (Fab, V domains shown)
VH: B1 VH
VL: B1 VL with Y36T, V99A
notes: as for B1
B26: toripalimab Fab L.V99D (Fab, V domains shown)
VH: B1 VH
VL: B1 VL with Y36T, V99D
notes: as for B1

Legend:
[1] = target: T1, human programmed cell death protein 1 (hPD-1) C93S (aa 24-167) (Homo sapiens, UniProt Q15116, C93S); assay: SPR; Carterra LSA; Fab from the ammonium sulfate precipitate of the culture supernatant immobilised on a NiHC200M chip; hPD-1 (1-1024 nM) or mPD-1-Fc (4-1024 nM) as analyte, fourfold dilution series, no regeneration; HBS-EP pH 7.4, 25 °C; medians over the spots of a construct, KD = koff/kon; settings: one partner purified
T1 construct: made as a fusion with a TEV site and human Fc; the Fc was cut off with TEV protease; source: Expi293F, purified (Protein A, TEV cleavage of Fc, SEC; monomer fractions); not shown: Fc (human), C-terminal, cleaved
T1 sequence (Q15116 24-167 C93S): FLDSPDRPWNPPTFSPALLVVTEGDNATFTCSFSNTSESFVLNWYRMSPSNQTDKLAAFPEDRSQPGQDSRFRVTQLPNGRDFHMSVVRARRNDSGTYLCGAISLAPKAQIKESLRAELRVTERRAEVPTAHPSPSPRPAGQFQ
Procedure, shortened: (§1)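 Human PD-1 (1–1024 nM) or mouse PD-1-Fc (4–1024 nM), in fourfold series, was flowed without regeneration over Fabs captured in duplicate on a NiHC200M chip (Carterra LSA, 25 °C), using 10 min association and 5 min dissociation. The Fabs had been recovered from Brevibacillus culture supernatants by ammonium sulfate precipitation and redissolved in HBS-EP. For binding constants, KD was defined as koff/kon from per-construct medians, with rates fitted by the kdka model under slow- or fast-dissociation settings (best fit) and unconfirmed binders set to kon 10^3 […] and koff 10^−2 s^−1.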

[2] = target: T2, mouse programmed cell death protein 1 Fc fusion protein (mPD-1-Fc), mPD-1 C60S (aa 25-167) (Mus musculus, UniProt Q02242, stabilised); assay: as above; settings: one partner purified
T2 construct: not cleaved; source: Expi293F, purified (Protein A, SEC; dimeric fraction); not shown: Fc (human), C-terminal, kept
Procedure, shortened: as §1

| Binder | Kd [1] | koff [1] | kon [1] | Kd [2] | koff [2] | kon [2] |
| --- | --- | --- | --- | --- | --- | --- |
| B1 | < 0.000372 µM | < 1e-05 s⁻¹ | 26900 M⁻¹ s⁻¹ | 0.164 µM | 0.00757 s⁻¹ | 46100 M⁻¹ s⁻¹ |
| B2 | < 0.00111 µM | < 1e-05 s⁻¹ | 8980 M⁻¹ s⁻¹ | 0.121 µM | 0.00533 s⁻¹ | 44000 M⁻¹ s⁻¹ |
| B3 | < 0.00118 µM | < 1e-05 s⁻¹ | 8480 M⁻¹ s⁻¹ | 0.182 µM | 0.00821 s⁻¹ | 45200 M⁻¹ s⁻¹ |
| B4 | 0.00166 µM | 2.65e-05 s⁻¹ | 15900 M⁻¹ s⁻¹ | 0.728 µM | 0.0237 s⁻¹ | 32500 M⁻¹ s⁻¹ |
| B5 | 0.0014 µM | 1.3e-05 s⁻¹ | 9280 M⁻¹ s⁻¹ | 0.235 µM | 0.0094 s⁻¹ | 40000 M⁻¹ s⁻¹ |
| B6 | < 0.000489 µM | < 1e-05 s⁻¹ | 20400 M⁻¹ s⁻¹ | 0.202 µM | 0.00784 s⁻¹ | 38700 M⁻¹ s⁻¹ |
| B7 | < 0.00147 µM | < 1e-05 s⁻¹ | 6790 M⁻¹ s⁻¹ | 0.29 µM | 0.0104 s⁻¹ | 35800 M⁻¹ s⁻¹ |
| B8 | < 0.000698 µM | < 1e-05 s⁻¹ | 14300 M⁻¹ s⁻¹ | 0.209 µM | 0.00805 s⁻¹ | 38500 M⁻¹ s⁻¹ |
| B9 | < 0.000338 µM | < 1e-05 s⁻¹ | 29500 M⁻¹ s⁻¹ | 0.119 µM | 0.0054 s⁻¹ | 45300 M⁻¹ s⁻¹ |
| B10 | < 0.00131 µM | < 1e-05 s⁻¹ | 7630 M⁻¹ s⁻¹ | 0.186 µM | 0.00793 s⁻¹ | 42600 M⁻¹ s⁻¹ |
| B11 | < 0.00162 µM | < 1e-05 s⁻¹ | 6150 M⁻¹ s⁻¹ | 0.226 µM | 0.00916 s⁻¹ | 40500 M⁻¹ s⁻¹ |
| B12 | < 0.000377 µM | < 1e-05 s⁻¹ | 26600 M⁻¹ s⁻¹ | 0.13 µM | 0.00551 s⁻¹ | 42400 M⁻¹ s⁻¹ |
| B13 | < 0.000356 µM | < 1e-05 s⁻¹ | 28100 M⁻¹ s⁻¹ | 0.213 µM | 0.00916 s⁻¹ | 43000 M⁻¹ s⁻¹ |
| B14 | < 0.000669 µM | < 1e-05 s⁻¹ | 14900 M⁻¹ s⁻¹ | 0.182 µM | 0.00605 s⁻¹ | 33300 M⁻¹ s⁻¹ |
| B15 | 0.000608 µM | 1.12e-05 s⁻¹ | 18400 M⁻¹ s⁻¹ | 0.133 µM | 0.00463 s⁻¹ | 34800 M⁻¹ s⁻¹ |
| B16 | 0.00139 µM | 2.72e-05 s⁻¹ | 19600 M⁻¹ s⁻¹ | 0.103 µM | 0.00447 s⁻¹ | 43400 M⁻¹ s⁻¹ |
| B17 | < 0.0005 µM | < 1e-05 s⁻¹ | 20000 M⁻¹ s⁻¹ | 0.103 µM | 0.0044 s⁻¹ | 42500 M⁻¹ s⁻¹ |
| B18 | < 0.00246 µM | < 1e-05 s⁻¹ | 4060 M⁻¹ s⁻¹ | 0.177 µM | 0.000967 s⁻¹ | 5460 M⁻¹ s⁻¹ |
| B19 | < 0.000968 µM | < 1e-05 s⁻¹ | 10300 M⁻¹ s⁻¹ | 0.155 µM | 0.0129 s⁻¹ | 83200 M⁻¹ s⁻¹ |
| B20 | 0.00106 µM | 1.6e-05 s⁻¹ | 15100 M⁻¹ s⁻¹ | 0.63 µM | 0.04 s⁻¹ | 63500 M⁻¹ s⁻¹ |
| B21 | 0.00228 µM | 4.22e-05 s⁻¹ | 18500 M⁻¹ s⁻¹ | 0.13 µM | 0.00506 s⁻¹ | 39000 M⁻¹ s⁻¹ |
| B22 | 0.00188 µM | 4.49e-05 s⁻¹ | 23800 M⁻¹ s⁻¹ | 0.678 µM | 0.0274 s⁻¹ | 40400 M⁻¹ s⁻¹ |
| B23 | < 0.000436 µM | < 1e-05 s⁻¹ | 22900 M⁻¹ s⁻¹ | 0.12 µM | 0.00523 s⁻¹ | 43600 M⁻¹ s⁻¹ |
| B24 | 0.000737 µM | 1.34e-05 s⁻¹ | 18100 M⁻¹ s⁻¹ | 0.396 µM | 0.0148 s⁻¹ | 37400 M⁻¹ s⁻¹ |
| B25 | 0.00161 µM | 3.6e-05 s⁻¹ | 22300 M⁻¹ s⁻¹ | 0.0152 µM | 0.000353 s⁻¹ | 23300 M⁻¹ s⁻¹ |
| B26 | 0.00162 µM | 1.8e-05 s⁻¹ | 11100 M⁻¹ s⁻¹ | 0.0198 µM | 0.000759 s⁻¹ | 38300 M⁻¹ s⁻¹ |
